Measured values as given in patent publication US11407840B2, “Antibodies to M(H)DM2/4 and their use in diagnosing and treating cancer” (NomoCan Pharmaceuticals LLC, priority 2017, dated 2022).

Experiments:
[1] = tested on: human breast cancer MCF-7 cells; test: Cell-ELISA, intact cells; type: binding; conditions: mAb 1 μg/mL, FIGS. 3-5
Procedure: (§1) Cell-ELISA Methodology: 8,000-10,000 cells/well of a 96-well microplate were grown overnight. The next day, unbound cells were washed off with sterile 1× PBS. The cells in each well were fixed with freshly prepared 4% buffered paraformaldehyde (pH 7.2) for 1 hour followed by 3 washes with 1× PBS. The wells were then blocked with 5% BSA in PBS (100 ? /well) for 2 hours at room temperature. Microplate wells were then washed 5 times with 300 ? of ice cold 1× PBS. MAbs NMC-103, NMC-204 or NMC-303 at 1 μg/mL in 1% BSA/PBS were then incubated with various cancer or normal untransformed cells for 2 hours at room temperature. Wells were then washed with 300 ? of ice-cold 1× PBS for 5 times and corresponding secondary antibody HRP-GaM F(ab′)2 diluted 1:2500 or 1:5000 in PBS with 1% BSA were added at 100 ? /well for 1 hour at room temperature followed by washing 5 times with 300 ? of ice-cold 1× PBS. TMB Substrate Solution (1-StepTM Ultra TMB-ELISA, ThermoFisher, Cat. No. 34028) was then added at 50 ? ? to each microplate well and incubated at room temperature for 30 minutes. The reaction was stopped by addition of 50 μL, of stop solution (ThermoFisher, Cat. No. SSO4) to each well and absorbance of each well was measured at OD450 nm. The absorbance value of each experimental well was corrected for the absorbance value obtained from wells treated with isotype-identical mAbs included in each experiment. The results are thus expressed as “relative binding”.

[2] = tested on: human pancreatic cancer MIA PaCa-2 cells; test: Cell-ELISA, intact cells; type: binding; conditions: for binding to intact, EDTA-released MiaPaCa-2 cells, cell-ELISA: EDTA 10 mmols, pH 7.2, 5 min, 37° C., FIG. 10; for binding to intact MIA PaCa-2 cells when competed with NMC-P2 peptide / binding to intact MIA PaCa-2 cells when competed with soluble NMC-P1 peptide: FIG. 8; for relative binding (reactivity) to intact cells, cell-ELISA: MIA PaCa-2, mAb 1 μg/mL, FIGS. 3-5
Procedure: as §1

[3] = tested on: normal human peripheral blood mononuclear cells (PBMCs); test: Cell-ELISA, intact normal cells; type: binding; conditions: freshly isolated PBMCs; FIG. 6
Procedure: as §1

[4] = tested on: Human pancreatic cancer MIAPaCa-2 cells; test: In vitro growth inhibition (cell count); type: cell-based; conditions: overnight
Procedure: Methodology used: Human pancreatic cancer MIAPaCa-2 cells (8,000 cells/well) were pre-incubated with mAb NMC-103, NMC-204 and anti-Cytochrome-C antibody (Santa Cruz, Cat No. sc-13156) at 1, 5 and 10 μg/mL, respectively. Cells in the presence of one of the antibodies at various concentrations were then plated in triplicate in 96-well cell culture plates overnight. The next day, each plate well was analyzed morphologically and a picture was taken from each well using EVOS FL microscope. Cell count was also performed and the number of living cells was graphed as % of control.

[5] = tested on: mouse Lewis Lung cancer LL/2 cells (subcutaneous tumors); test: LL/2 syngeneic mouse model of lung cancer; type: in vivo, mouse (C57BL/6); conditions: day 21; 0.4 mg/kg i.p. 3 times a week for 3 weeks, started with tumor cell inoculation; FIG. 16
Procedure: Methodology used (Syngeneic Mouse Models of lung, colon and pancreatic cancer): To investigate the anti-tumor effects of HDM2-specific antibodies on lung, colon and pancreatic tumors in vivo, three well-known syngeneic mouse models of lung, colon and pancreatic cancer were used (Sharma et al, 1999, J. Immunol. 163 (9):5020-5028; McIntyre, 2015, Bioassays 37(8):909-920; Li, et al, 2015, Sci. Rep. 5:7856). Subcutaneous tumors were prepared by implanting either mouse Lewis Lung cancer LL/2 cells (2.5×10^5 cells/mouse), mouse colon cancer MC-38 cells (5×10^5 cells/mouse) or mouse pancreatic cancer Panc-2 cells (2×10^6 cells/mouse) in the right flanks of 8-week-old female C57BL/6 mice (n=6-7). The mice were returned to their respective cages after tumor implantation. From day 7 after tumor implantation, the tumor volumes were measured 2 times/week with a digital caliper. In the case of MC-38 and Panc-2 study, treatment started when the tumors reached an average of 70-80 mm^3. In the case of LL/2 study, tumor cell inoculation and treatment were initiated simultaneously. Mice were micro-chipped and registered following tumor implantation. […]

[6] = tested on: mouse colon cancer MC-38 cells (subcutaneous tumors); test: MC-38 syngeneic mouse model of colon cancer; type: in vivo, mouse (C57BL/6); conditions: for reduction in tumor volume versus control: FIG. 23
Procedure: Methodology used (Syngeneic Mouse Models of lung, colon and pancreatic cancer): To investigate the anti-tumor effects of HDM2-specific antibodies on lung, colon and pancreatic tumors in vivo, three well-known syngeneic mouse models of lung, colon and pancreatic cancer were used (Sharma et al, 1999, J. Immunol. 163 (9):5020-5028; McIntyre, 2015, Bioassays 37(8):909-920; Li, et al, 2015, Sci. Rep. 5:7856). Subcutaneous tumors were prepared by implanting either mouse Lewis Lung cancer LL/2 cells (2.5×10^5 cells/mouse), mouse colon cancer MC-38 cells (5×10^5 cells/mouse) or mouse pancreatic cancer Panc-2 cells (2×10^6 cells/mouse) in the right flanks of 8-week-old female C57BL/6 mice (n=6-7). The mice were returned to their respective cages after tumor implantation. From day 7 after tumor implantation, the tumor volumes were measured 2 times/week with a digital caliper. In the case of MC-38 and Panc-2 study, treatment started when the tumors reached an average of 70-80 mm^3. In the case of LL/2 study, tumor cell inoculation and treatment were initiated simultaneously. Mice were micro-chipped and registered following tumor implantation. Tumor volume measurements and body weights were recorded and mice were randomized into groups that received: A) mAb NMC-103 at 0.4 mg/kg (3 times a week for 3 weeks), 2 mg/kg (2 times a week for 3 weeks), or 4 mg/kg (2 times a week for 3 weeks); B) NMC-204 at 0.4 mg/kg (3 times a week for 3 weeks); C) isotype control mouse IgG1 (Abeam, Cat. No. ab 18447) or IgG3 (Abeam, Cat. No. ab 18392) at 0.4 mg/kg (3 times a week for 3 weeks) or 4 mg/kg (2 times a week for 3 weeks); D) Gemcitabine (25 mg/kg) and nab-paclitaxel (5 mg/kg) 2 times a week for 3 weeks; or E) a combination of gemcitabine (25 mg/kg), nab-paclitaxel (5 mg/kg) and mAb NMC-103 (2 mg/kg; 2 times a week for 3 weeks) or (10 mg/kg; 2 times a week for 2 weeks). All tumors were injected subcutaneously and all treatments were performed by intraperitoneal injection. Any mouse displaying prolonged adverse clinical signs, or with body weight loss exceeding 15% relative to body weight at day 0, was euthanized. Tumor measurements from post-treatment with HDM2-specific antibodies versus isotype control mouse antibodies versus standard of care treatment (gemcitabine and nab-paclitaxel) were made, and results are presented in FIGS. 16-19.
To further evaluate the NMC-103 dose-dependent anti-tumor effect, in a separate study, the MC-38 syngeneic tumor in mice (n=5) was re-established and treatment carried out similarly to the study of FIG. 17 with the following modification: increase of antibody concentration from 0.4 mg/kg to 10 mg/kg.

[7] = tested on: Human pancreatic cancer MIAPaCa-2 cells; test: Complement-mediated cytotoxicity (CDC) with normal human serum, PI staining; type: cell-based; conditions: antibody 30 μg/ml; NHS 1:10; 2 hours; FIG. 13
Procedure: Methodology used: Cells seeded in 24-well dishes were grown overnight at 37° C. in a humidified atmosphere supplied with 5% CO2-95% air mixture. The following day the cells were thoroughly washed with ice-cold PBS and incubated with HDM2-specific mAb NMC-103 diluted in culture medium containing 1% BSA to a final antibody concentration of 30 μg/ml. After 30 min, NHS was added to the cells at a final concentration of 1:10 in the culture medium with 1%) BSA together with 1% propidium iodide (PI) solution. Cells were then incubated with NHS for 2 hours and images were taken using EVOS FL fluorescent microscope (Life Technologies).

[8] = 0.4 mg/kg i.p. 3 times a week for 3 weeks

Row | Molecule | relative binding (reactivity) to intact cells, cell-ELISA [1] | binding to intact, EDTA-released MiaPaCa-2 cells, cell-ELISA [2] | binding to intact MIA PaCa-2 cells when competed with NMC-P2 peptide [2] | binding to intact MIA PaCa-2 cells when competed with soluble NMC-P1 peptide [2] | relative binding (reactivity) to intact cells, cell-ELISA [2] | binding to intact normal human PBMCs, cell-ELISA [3] | growth inhibitory effect (FIG. 12D; number of living cells graphed as % of control) ([4]; antibody 1 μg/mL) | growth inhibitory effect (FIG. 12D; number of living cells graphed as % of control) ([4]; antibody 5 μg/mL) | growth inhibitory effect (FIG. 12D; number of living cells graphed as % of control) ([4]; antibody 10 μg/mL) | tumor volume [5] | tumor volume ([6]; 0.4 mg/kg i.p. 3 times a week for 3 weeks, FIG. 18A) | reduction in tumor volume versus control [6, 8] | tumor cells stained positively for Ki67 ([6]; NMC-204 study, 0.4 mg/kg, FIG. 18B) | binding to intact MIA PaCa-2 cells after pre-incubation with full-length recombinant HDM2 ([2]; FIG. 9) | complement-mediated cytotoxicity (nuclear uptake of Propidium Iodide) [7] | tumor cells stained positive for Ki67 (immunohistochemistry) ([6]; NMC-103 study, 0.4 mg/kg, FIG. 17B) | average tumor size ([6]; day 12, 10 mg/kg, 2 times per week for 2 weeks, n=5, FIG. 31) | tumor volume ([6]; treated for 18 days, 0.4 mg/kg i.p. 3 times a week for 2.5 weeks, FIG. 17A)
1 | NMC-204: mouse monoclonal antibody, IgG3 isotype, binds NMC-P2 (SEQ ID NO:2); VH SEQ ID NO:38, VL SEQ ID NO:39 (antibody, V domains shown, mAb NMC-204 Heavy Chain Variable Region; mAb NMC-204 Light Chain Variable Region) VH: EVQLQESGSVLVRPGASVKLSCKASGDTLSGSWMHWAMQRPGQGLEWIGEIHLNRGTTNYNEKFKGKATVTVDTSSSTAYVDLSSLTSEDSAVYYCARSPGFAYWGQGTLVTVSA VL: GIVMTQAAPSVPVTPGESVSISCRSSKSLLHSNGNSYLYWFLQRPGQSPQLLIYRMSNLASGVPDRFSGSGSGTAFTLRITRVEAEDVGVYYCMQHLEYPFTFGSGTKLEIK | reactivity | bound | competed | not with NMC-P1 | reactivity | did not react | 65% | 73% | 77% | 1446 mm^3 | 1670 mm^3 | significant (p<0.005) reduction in tumor volume | 30% | – | – | – | – | –
2 | NMC-103: mouse monoclonal antibody, IgG1 isotype, binds NMC-P1 (SEQ ID NO:1); VH SEQ ID NO:36, VL SEQ ID NO:37 (antibody, V domains shown, mAb NMC-103 Heavy Chain Variable Region; mAb NMC-103 Light Chain Variable Region) VH: EVQLQESGGGLVQPGGSLRLSCTTSGFTFTHYYMSWVRQPPGKALEWLGFIRNKAKGYTAEYSASVKGRFTISRDNSQSILYLQMNTLRPEDSATYYCARDIGDNWGQGTLVTVSS VL: DIVMTQAAFSNPVTLGTSASISCRSSKNLLHSNGITYLYWYLQRPGQSPQLLISRVSNLASGVPNRFSGSESGTDFTLRISRVEAEDVGVYFCAQLLELPYTFGGGTKLEIK | reactivity | bound | did not have any effect | completely abolished | reactivity | virtually no binding | 65% | 84% | 91% | – | – | significant (p<0.005) reduction in tumor volume | – | reduced | triggered complement-mediated cytotoxicity | 5% | 210 mm^3 | 1268 mm^3
